Data reported in patent publication US20210261648A1 (published 2021).

T1: FcγRIIa type H extracellular domain with C-terminal His tag (human, UniProt P12318 34-217)
T1 construct: extracellular domain; also called FcgRIIaH; FcγRIIa H
T1 sequence (looked up): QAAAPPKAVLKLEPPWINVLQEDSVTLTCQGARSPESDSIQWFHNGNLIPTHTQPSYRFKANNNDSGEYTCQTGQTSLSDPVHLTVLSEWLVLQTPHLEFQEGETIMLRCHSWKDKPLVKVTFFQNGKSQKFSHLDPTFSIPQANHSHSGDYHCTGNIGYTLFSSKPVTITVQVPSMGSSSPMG

T2: FcγRIIb (human, UniProt P31994 43-217)
T2 construct: extracellular domain; also called FcgRIIb; CD32B
T2 sequence (looked up): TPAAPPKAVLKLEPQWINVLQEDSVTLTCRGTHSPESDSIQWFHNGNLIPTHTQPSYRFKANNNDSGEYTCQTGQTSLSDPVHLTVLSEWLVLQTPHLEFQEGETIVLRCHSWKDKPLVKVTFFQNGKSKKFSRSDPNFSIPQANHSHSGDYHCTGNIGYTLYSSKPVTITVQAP

T3: FcγRIIa type R (human, UniProt P12318 34-217)
T3 chain: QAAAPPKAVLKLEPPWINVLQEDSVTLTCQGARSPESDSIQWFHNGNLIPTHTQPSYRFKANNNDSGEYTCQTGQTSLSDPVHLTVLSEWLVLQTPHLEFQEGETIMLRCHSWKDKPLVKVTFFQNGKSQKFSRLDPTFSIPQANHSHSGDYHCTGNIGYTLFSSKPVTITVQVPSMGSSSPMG

T4: FcγRIIb extracellular domain with C-terminal His tag (human, UniProt P31994 43-217)
T4 construct: extracellular domain; also called FcgRIIb
T4 sequence (looked up): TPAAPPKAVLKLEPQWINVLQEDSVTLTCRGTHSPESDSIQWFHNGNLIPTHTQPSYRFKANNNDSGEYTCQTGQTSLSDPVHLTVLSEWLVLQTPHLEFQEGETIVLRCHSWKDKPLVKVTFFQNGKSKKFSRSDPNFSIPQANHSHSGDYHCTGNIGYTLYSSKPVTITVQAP


Tests used:
[1] = molecular target: T1, FcγRIIa type H extracellular domain …; assay: SPR, captured antibody, FcgR analyte
Method: (§1) Relative binding activities were calculated for the results of analyzing interactions with the respective FcγRs according to the following method.

[2] = molecular target: T5, FcγRIa extracellular domain with C-terminal His tag (human, UniProt P12314 16-292); assay: SPR, captured antibody, FcgR analyte
T5 construct: also called FcgRIa
Method: as §1

FcγRIIb [3] = molecular target: T2, FcγRIIb; assay: SPR (Biacore); parent = IL6R-B3/IL6R-L
FcγRIIa type R [4] = molecular target: T3, FcγRIIa type R; assay: SPR (Biacore); parent = IL6R-B3/IL6R-L
FcγRIIb [5] = molecular target: T2, FcγRIIb; assay: SPR (Biacore), captured antibody, soluble FcγR
FcγRIa = molecular target: T6, FcγRIa (human, UniProt P12314 16-292); assay: SPR (Biacore), captured antibody, soluble FcγR
T6 construct: Whole entry named; also called FcgRIa; CD64A

FcγRIIa type R [6] = molecular target: T3, FcγRIIa type R; assay: SPR (Biacore), captured antibody, soluble FcγR
[7] = molecular target: T4, FcγRIIb extracellular domain with …; assay: SPR, captured antibody, FcgR analyte
Method: as §1

T6 sequence (P12314 16-292): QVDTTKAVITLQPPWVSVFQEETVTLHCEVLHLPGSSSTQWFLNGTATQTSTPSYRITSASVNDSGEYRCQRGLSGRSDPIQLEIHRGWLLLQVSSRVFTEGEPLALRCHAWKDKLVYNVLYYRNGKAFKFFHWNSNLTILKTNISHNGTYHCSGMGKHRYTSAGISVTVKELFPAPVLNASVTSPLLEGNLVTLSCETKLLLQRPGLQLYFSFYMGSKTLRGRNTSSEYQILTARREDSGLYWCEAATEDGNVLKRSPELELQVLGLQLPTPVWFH
T5 sequence (P12314 16-292): as above

Row | Binder | relative binding activity [1] | relative binding activity [2] | KD(IIb) of the parent polypeptide/KD(IIb) of the altered polypeptide (FcγRIIb [3]) | KD(IIaR) of the parent polypeptide/KD(IIaR) of the altered polypeptide (FcγRIIa type R [4]) | Kd (FcγRIIb [5]) | Kd (FcγRIa) | Kd (FcγRIIa type R [6]) | relative binding activity [7]
1 | IL6R-BP130/IL6R-L (antibody, human IgG1, kappa) heavy: QVQLQESGPGLVKPSETLSLTCAVSGHSISHDHAWSWVRQPPGEGLEWIGFISYSGITNYNPSLQGRVTISRDNSKNTLYLQMNSLRAEDTAVYYCARSLARTTAMDYWGEGTLVTVSSASTKGPSVFPLAPSSKSTSGGTAALGCLVKDYFPEPVTVSWNSGALTSGVHTFPAVLQSSGLYSLSSVVTVPSSSLGTQTYICNVNHKPSNTKVDKKVEPKSCDKTHTCPPCPAPDLLGGDSVFLFPPKPKDTLMISRTPEVTCVVVDVSHEDPEVKFNWYVDGVEVHNAKTKPREEQYNSTYRVVSVLTVLHQDWLNGKEYKCKMSNKALPKPIEKTISKAKGQPREPQVYTLPPSRDELTKNQVSLTCLVKGFYPSDIAVEWESNGQPENNYKTTPPVLDSDGSFFLYSKLTVDKSRWQQGNVFSCSVMHEALHNHYTQESLSLSP light: not shown | 224 relative (IL6R-BF648/IL6R-L = 100) | 104 relative (IL6R-BF648/IL6R-L = 100) |  |  |  |  |  | 
2 | IL6R-BP131/IL6R-L (antibody, human IgG1, kappa) heavy: QVQLQESGPGLVKPSETLSLTCAVSGHSISHDHAWSWVRQPPGEGLEWIGFISYSGITNYNPSLQGRVTISRDNSKNTLYLQMNSLRAEDTAVYYCARSLARTTAMDYWGEGTLVTVSSASTKGPSVFPLAPSSKSTSGGTAALGCLVKDYFPEPVTVSWNSGALTSGVHTFPAVLQSSGLYSLSSVVTVPSSSLGTQTYICNVNHKPSNTKVDKKVEPKSCDKTHTCPPCPAPDLLGDDSVFLFPPKPKDTLMISRTPEVTCVVVDVSHEDPEVKFNWYVDGVEVHNAKTKPREEQYNSTYRVVSVLTVLHQDWLNGKEYKCKVSNKALPKPIEKTISKAKGQPREPQVYTLPPSRDELTKNQVSLTCLVKGFYPSDIAVEWESNGQPENNYKTTPPVLDSDGSFFLYSKLTVDKSRWQQGNVFSCSVMHEALHNHYTQESLSLSP light: not shown | 253 relative (IL6R-BF648/IL6R-L = 100) | 33 relative (IL6R-BF648/IL6R-L = 100) |  |  |  |  |  | 
3 | IL6R-BP195/IL6R-L (antibody, human IgG1, kappa) heavy: QVQLQESGPGLVKPSETLSLTCAVSGHSISHDHAWSWVRQPPGEGLEWIGFISYSGITNYNPSLQGRVTISRDNSKNTLYLQMNSLRAEDTAVYYCARSLARTTAMDYWGEGTLVTVSSASTKGPSVFPLAPSSKSTSGGTAALGCLVKDYFPEPVTVSWNSGALTSGVHTFPAVLQSSGLYSLSSVVTVPSSSLGTQTYICNVNHKPSNTKVDKKVEPKSCDKTHTCPPCPAPDYLGDDSVFLFPPKPKDTLMISRTPEVTCVVVDVSDEDGEVKFNWYVDGVEVHNAKTKPREEQDNSTYRVVSVLTVLHQDWLNGKEYKCKVSNAALPKPIEKTISKAKGQPREPQVYTLPPSRDELTKNQVSLTCLVKGFYPSDIAVEWESNGQPENNYKTTPPVLDSDGSFFLYSKLTVDKSRWQQGNVFSCSVMHEALHNHYTQESLSLSP light: not shown | 344 relative (IL6R-BF648/IL6R-L = 100) | 68 relative (IL6R-BF648/IL6R-L = 100) |  |  |  |  |  | 
4 | IL6R-BP151/IL6R-L (antibody, human IgG1, kappa) heavy: QVQLQESGPGLVKPSETLSLTCAVSGHSISHDHAWSWVRQPPGEGLEWIGFISYSGITNYNPSLQGRVTISRDNSKNTLYLQMNSLRAEDTAVYYCARSLARTTAMDYWGEGTLVTVSSASTKGPSVFPLAPSSKSTSGGTAALGCLVKDYFPEPVTVSWNSGALTSGVHTFPAVLQSSGLYSLSSVVTVPSSSLGTQTYICNVNHKPSNTKVDKKVEPKSCDKTHTCPPCPAPDYLGDDSVFLFPPKPKDTLMISRTPEVTCVVVDVSHEDPEVKFNWYVDGVEVHNAKTKPREEQYNSTYRVVSVLTVLHQDWLNGKEYKCKVSNAALPRPIEKTISKAKGQPREPQVYTLPPSRDELTKNQVSLTCLVKGFYPSDIAVEWESNGQPENNYKTTPPVLDSDGSFFLYSKLTVDKSRWQQGNVFSCSVMHEALHNHYTQESLSLSP light: not shown | 621 relative (IL6R-BF648/IL6R-L = 100) | 39 relative (IL6R-BF648/IL6R-L = 100) |  |  |  |  |  | 

Now from value to binder:

Row | relative binding activity [1] | relative binding activity [2] | KD(IIb) of the parent polypeptide/KD(IIb) of the altered polypeptide (FcγRIIb [3]) | KD(IIaR) of the parent polypeptide/KD(IIaR) of the altered polypeptide (FcγRIIa type R [4]) | Kd (FcγRIIb [5]) | Kd (FcγRIa) | Kd (FcγRIIa type R [6]) | relative binding activity [7] | Binder
5 |  |  | 110 fold | 0.7 fold | 28 nM | 1.1 nM | 1600 nM |  | IL6R-BP559/IL6R-L (antibody, human IgG1, kappa, Alterations in EU numbering, introduced into IL6R-B3) heavy: QVQLQESGPGLVKPSETLSLTCAVSGHSISHDHAWSWVRQPPGEGLEWIGFISYSGITNYNPSLQGRVTISRDNSKNTLYLQMNSLRAEDTAVYYCARSLARTTAMDYWGEGTLVTVSSASTKGPSVFPLAPSSKSTSGGTAALGCLVKDYFPEPVTVSWNSGALTSGVHTFPAVLQSSGLYSLSSVVTVPSSSLGTQTYICNVNHKPSNTKVDKKVEPKSCDKTHTCPPCPAPELLGGDSVFLFPPKPKDTLMISRTPEVTCVVIDVAEEDGDVKFNWYVDGVEVHNAKTKPREEQDNSTYRVVSVLTVLHQDWLNGKEYKCKVSNKALPAPIEKTISKAKGQPREPQVYTLPPSRDELTKNQVSLTCLVKGFYPSDIAVEWESNGQPENNYKTTPPVLDSDGSFFLYSKLTVDKSRWQQGNVFSCSVMHEALHNHYTQESLSLSP light: not shown
6 | 224 relative (IL6R-BF648/IL6R-L = 100) | 50 relative (IL6R-BF648/IL6R-L = 100) |  |  |  |  |  |  | IL6R-BP190/IL6R-L (antibody, human IgG1, kappa) heavy: QVQLQESGPGLVKPSETLSLTCAVSGHSISHDHAWSWVRQPPGEGLEWIGFISYSGITNYNPSLQGRVTISRDNSKNTLYLQMNSLRAEDTAVYYCARSLARTTAMDYWGEGTLVTVSSASTKGPSVFPLAPSSKSTSGGTAALGCLVKDYFPEPVTVSWNSGALTSGVHTFPAVLQSSGLYSLSSVVTVPSSSLGTQTYICNVNHKPSNTKVDKKVEPKSCDKTHTCPPCPAPELLGDDSVFLFPPKPKDTLMISRTPEVTCVVVDVSDEDGEVKFNWYVDGVEVHNAKTKPREEQYNSTYRVVSVLTVLHQDWLNGKEYKCKVSNKALPKPIEKTISKAKGQPREPQVYTLPPSRDELTKNQVSLTCLVKGFYPSDIAVEWESNGQPENNYKTTPPVLDSDGSFFLYSKLTVDKSRWQQGNVFSCSVMHEALHNHYTQESLSLSP light: not shown
7 |  |  | 196 fold | 1.9 fold | 16 nM | 18 nM | 570 nM |  | IL6R-BP549/IL6R-L (antibody, human IgG1, kappa, Alterations in EU numbering, introduced into IL6R-B3) heavy: QVQLQESGPGLVKPSETLSLTCAVSGHSISHDHAWSWVRQPPGEGLEWIGFISYSGITNYNPSLQGRVTISRDNSKNTLYLQMNSLRAEDTAVYYCARSLARTTAMDYWGEGTLVTVSSASTKGPSVFPLAPSSKSTSGGTAALGCLVKDYFPEPVTVSWNSGALTSGVHTFPAVLQSSGLYSLSSVVTVPSSSLGTQTYICNVNHKPSNTKVDKKVEPKSCDKTHTCPPCPAPELLGDDSVFLFPPKPKDTLMISRTPEVTCVVVDVGEEDGEVKFNWYVDGVEVHNAKTKPREEQYNSTYRVVSVLTVLHQDWLNGKEYKCKVSNKALPRPIEKTISKAKGQPREPQVYTLPPSRDELTKNQVSLTCLVKGFYPSDIAVEWESNGQPENNYKTTPPVLDSDGSFFLYSKLTVDKSRWQQGNVFSCSVMHEALHNHYTQESLSLSP light: not shown
8 |  |  | 174 fold | 2.1 fold | 18 nM | 1.1 nM | 520 nM |  | IL6R-BP509/IL6R-L (antibody, human IgG1, kappa, Alterations in EU numbering, introduced into IL6R-B3) heavy: QVQLQESGPGLVKPSETLSLTCAVSGHSISHDHAWSWVRQPPGEGLEWIGFISYSGITNYNPSLQGRVTISRDNSKNTLYLQMNSLRAEDTAVYYCARSLARTTAMDYWGEGTLVTVSSASTKGPSVFPLAPSSKSTSGGTAALGCLVKDYFPEPVTVSWNSGALTSGVHTFPAVLQSSGLYSLSSVVTVPSSSLGTQTYICNVNHKPSNTKVDKKVEPKSCDKTHTCPPCPAPDLLGDDSVFLFPPKPKDTLMISRTPEVTCVVIDVAEEDGDVKFNWYVDGVEVHNAKTKPREEQDNSTYRVVSVLTVLHQDWLNGKEYKCKVSNKALPAPIEKTISKAKGQPREPQVYTLPPSRDELTKNQVSLTCLVKGFYPSDIAVEWESNGQPENNYKTTPPVLDSDGSFFLYSKLTVDKSRWQQGNVFSCSVMHEALHNHYTQESLSLSP light: not shown
9 | 203 relative (IL6R-BF648/IL6R-L = 100) |  |  |  |  |  |  | 156 relative (IL6R-BF648/IL6R-L = 100) | IL6R-BP146/IL6R-L (antibody, human IgG1, kappa) heavy: QVQLQESGPGLVKPSETLSLTCAVSGHSISHDHAWSWVRQPPGEGLEWIGFISYSGITNYNPSLQGRVTISRDNSKNTLYLQMNSLRAEDTAVYYCARSLARTTAMDYWGEGTLVTVSSASTKGPSVFPLAPSSKSTSGGTAALGCLVKDYFPEPVTVSWNSGALTSGVHTFPAVLQSSGLYSLSSVVTVPSSSLGTQTYICNVNHKPSNTKVDKKVEPKSCDKTHTCPPCPAPEYLGDDSVFLFPPKPKDTLMISRTPEVTCVVVDVSHEDPEVKFNWYVDGVEVHNAKTKPREEQYNSTYRVVSVLTVLHQDWLNGKEYKCKVSNAALPAPIEKTISKAKGQPREPQVYTLPPSRDELTKNQVSLTCLVKGFYPSDIAVEWESNGQPENNYKTTPPVLDSDGSFFLYSKLTVDKSRWQQGNVFSCSVMHEALHNHYTQESLSLSP light: not shown
